Measured values from patent US20260274981A1 (VIB VZW, published 2026).

T1: recombinant cynomolgus TfR (90253-C07H, Sino Biological), biotinylated (cynomolgus monkey, UniProt Q5RDH6 89-760 (Pongo abelii entry), biotinylated with EZ-Link NHS-PEG4-Biotinylation Kit)
T1 construct: Bought protein; also called immobilized recombinant cynomolgus TfR
T1 chain: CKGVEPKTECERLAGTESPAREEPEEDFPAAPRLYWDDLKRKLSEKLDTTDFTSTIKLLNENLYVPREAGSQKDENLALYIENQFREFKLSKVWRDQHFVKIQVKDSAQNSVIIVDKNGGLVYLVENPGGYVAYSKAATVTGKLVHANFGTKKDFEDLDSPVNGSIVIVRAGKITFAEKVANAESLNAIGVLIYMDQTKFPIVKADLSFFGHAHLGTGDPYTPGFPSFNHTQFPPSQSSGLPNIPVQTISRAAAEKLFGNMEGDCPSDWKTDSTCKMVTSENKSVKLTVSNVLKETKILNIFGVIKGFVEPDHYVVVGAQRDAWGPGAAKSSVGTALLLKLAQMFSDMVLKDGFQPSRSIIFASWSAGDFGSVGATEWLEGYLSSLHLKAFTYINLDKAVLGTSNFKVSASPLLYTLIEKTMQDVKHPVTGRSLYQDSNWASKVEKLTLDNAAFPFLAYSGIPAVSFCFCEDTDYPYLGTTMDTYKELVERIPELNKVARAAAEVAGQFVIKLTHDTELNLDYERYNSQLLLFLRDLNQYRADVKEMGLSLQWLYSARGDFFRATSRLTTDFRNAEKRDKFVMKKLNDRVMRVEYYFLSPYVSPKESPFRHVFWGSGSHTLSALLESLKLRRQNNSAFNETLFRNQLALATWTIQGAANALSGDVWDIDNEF

T2: cynomolgus TfR overexpressed on CHO cells (cynomolgus monkey, UniProt Q5RDH6 1-760 (Pongo abelii entry))
T2 construct: construct is TfR followed by an HA tag and IRES-GFP; also called cynomolgus monkey TfR1; NHP TfR
T2 chain: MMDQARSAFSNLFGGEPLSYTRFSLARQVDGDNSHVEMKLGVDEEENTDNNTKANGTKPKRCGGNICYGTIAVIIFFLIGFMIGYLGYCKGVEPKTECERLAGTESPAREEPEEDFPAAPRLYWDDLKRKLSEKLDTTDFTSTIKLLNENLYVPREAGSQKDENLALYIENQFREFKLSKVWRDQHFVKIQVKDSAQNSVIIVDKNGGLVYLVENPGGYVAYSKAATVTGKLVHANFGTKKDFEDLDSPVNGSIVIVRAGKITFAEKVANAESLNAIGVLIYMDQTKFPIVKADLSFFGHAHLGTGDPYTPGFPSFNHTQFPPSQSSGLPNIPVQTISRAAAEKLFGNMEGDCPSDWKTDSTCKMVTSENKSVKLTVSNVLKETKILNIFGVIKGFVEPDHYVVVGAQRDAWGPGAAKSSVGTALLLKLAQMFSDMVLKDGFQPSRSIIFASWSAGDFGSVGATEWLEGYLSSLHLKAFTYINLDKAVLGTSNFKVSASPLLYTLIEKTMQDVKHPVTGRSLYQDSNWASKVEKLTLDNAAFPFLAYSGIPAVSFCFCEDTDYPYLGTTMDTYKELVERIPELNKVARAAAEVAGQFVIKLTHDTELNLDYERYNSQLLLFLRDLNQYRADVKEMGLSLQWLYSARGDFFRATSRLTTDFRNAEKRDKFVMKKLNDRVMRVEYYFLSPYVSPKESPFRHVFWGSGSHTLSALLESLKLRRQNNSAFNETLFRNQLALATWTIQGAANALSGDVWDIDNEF


Columns and labels:
[1] = molecular target: T1, recombinant cynomolgus TfR (90253-C07H, …); assay: SPR (Biacore T200), biotinylated cynomolgus TfR captured on an SA chip as ligand, VHH as analyte, single cycle kinetics, 1:1 binding model
From the text: Phage libraries generated after 4 biweekly immunizations of two different camelids, underwent two rounds of pannings on CHO cell lines overexpressing either cynomolgus TfR in the first round or human TfR in the second round. Output libraries were screened with flow cytometry to find binders to human TfR overexpressing cells (FIG. 1A). […] Binding kinetics to recombinant human and cynomolgus TfR were further characterized with Surface Plasmon Resonance (SPR).
Surface Plasmon Resonance (SPR) was used to measure the interaction between VHHs and human or cynomolgus TfR receptor. Human TfR (2474-TR, R&D Systems) and cynomolgus TfR (90253-C07H, Sino Biological) were biotinylated with the EZ-Link NHS-PEG4-Biotinylation Kit (ThermoFischer Scientific) according to the manufacturer instructions. The binding experiments were performed at 25° C. on a Biacore T200 instrument (Cytiva, Uppsala, Sweden) in HBS-EP+ buffer (10 mM HEPES, 150 mM NaCl, 3 mM EDTA and 0.05% v/v Surfactant P20). Biotinylated human TfR and cynomolgus TfR were captured on a SA sensor chip (Cytiva) at a density of around 250 RU. Increasing concentrations of VHHs were sequentially injected in one single cycle at a flow rate of 30 μl/min. The dissociation was monitored for 20 min. […] A reference flow was used as a control for non-specific binding and refractive index changes. Several buffer blanks were used for double referencing. Binding affinities (KD) and kinetic rate constants (kₒₙ, koff) were derived after fitting the experimental data to the 1:1 binding model with the Biacore T200 Evaluation Software 3.1 using the single cycle kinetic procedure. Each interaction was repeated a least three times.

[2] = molecular target: T2, cynomolgus TfR overexpressed on CHO …; assay: flow cytometry on CHO cells overexpressing cynomolgus TfR (CHO-cynoTfR), VHH detected with anti-FLAG-iFluor647; median Flag-i647 intensity in total GFP cells
Experimental: Output libraries were screened with flow cytometry to find binders to human TfR overexpressing cells (FIG. 1A). […] Binding kinetics to recombinant human and cynomolgus TfR were further characterized with Surface Plasmon Resonance (SPR).
Periplasmic extracts diluted 1:10 in PBS 2% FBS, or a dilution range of different VHH or bispecific antibody concentrations prepared in PBS 2% FBS, were incubated with 0.1 million CHO cells overexpressing either the human, cynomolgus or mouse TfR for 30 min at 4° C. As control for background binding, periplasmic extracts, VHHs or bispecific antibodies were also incubated with 0.1 million CHO cells overexpressing GFP. Binding of VHHs was next resolved by a second step 30 min incubation at 4° C. with an anti-FLAG-iFluor647 antibody (A01811, Genscript) diluted 1:500 for screening and 1:250 for validation assays, or with anti-human IgG Fc-Alexa Fluor647 antibody (410714, BioLegend) diluted 1:200. […] Cells were fixed with 4% paraformaldehyde before being analyzed. Flp-In™-CHO™ cells used as unstained control and single stain controls were used to determine the cut-off point between background fluorescence and positive populations. […] The data was acquired with an Attune Nxt flow cytometer (Invitrogen) and analyzed by FCS Express 7 Research Edition.

| koff [1] [s⁻¹] | kon [1] [M⁻¹ s⁻¹] | EC50 (read off the curve) [2] [nM] | Binder |
| --- | --- | --- | --- |
| 0.0118 | 115000 | ~40 | BBB00533 (VHH, Lead VHH expressed in E. coli TG1 and purified by IMAC; detected with anti-FLAG antibody in flow cytometry; also called BBB00533 VHH; not shown: C-terminal 3xFlag/6xHis tag from expression vector pBDS119) VHH: QVQLQESGGGSVQPGGSLRLSCTASGRTFNYAMGWFRQAPGKNREFVATIDWKDGSSYYLDSVRGRFTIERDDAKNTVYLQMNSLKPEDAAVYTCAVGDGDYCSTYTCAAEVEYDYWGQGTQVTVSS |
| 0.00942 | 149000 | ~8 | BBB00515 (VHH, Lead VHH expressed in E. coli TG1 and purified by IMAC; detected with anti-FLAG antibody in flow cytometry; also called BBB00515 VHH; not shown: C-terminal 3xFlag/6xHis tag from expression vector pBDS119) VHH: QVQLQESGGGLVQAGGSLRLSCAASGSIFSINAMGWYRQAPGKQRELVAVITSGGSTIYADSVKGRFTISRDNAENTVYLQMNSLKPEDTAVYYCNAHVGLKVPTIQELSLGFGSWGQGTQVTVSS |
